# Assay results: article PMC10371798, “Protein–protein interactions between tenascin-R and RPTPζ/phosphacan are critical to maintain the architecture of perineuronal nets” (The Journal of Biological Chemistry, 2023)
# “And” between values parts separate entries of the source, which are not always exact repeats. Equal entries are not always repeated.
# T1: Fg domain of human tenascin-C (human, UniProt P24821 1975-2201)
# T1 construct: C-terminal fibrinogen-like (Fg) domain of human tenascin-C, amino acid residues 1975-2201; also called HTNC(Fg); TNC(Fg); source: E. coli Origami 2(DE3), purified (Ni Sepharose, HRV 3C cleavage, HiTrap Heparin, Superdex 200)
# T1 sequence (looked up): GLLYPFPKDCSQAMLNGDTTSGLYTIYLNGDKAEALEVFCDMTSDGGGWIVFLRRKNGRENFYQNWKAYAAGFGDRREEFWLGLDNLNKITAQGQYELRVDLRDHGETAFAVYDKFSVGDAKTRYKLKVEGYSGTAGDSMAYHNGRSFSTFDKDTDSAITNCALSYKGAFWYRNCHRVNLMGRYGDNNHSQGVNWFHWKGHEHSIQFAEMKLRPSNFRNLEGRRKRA
# T2: Fg domain of human tenascin-R (human, UniProt Q92752 1129-1358)
# T2 construct: C-terminal fibrinogen-like (Fg) domain of human tenascin-R, amino acid residues 1129-1358; also called HTNR(Fg); TNR(Fg); source: E. coli Origami 2(DE3), purified (Ni Sepharose, HRV 3C cleavage, HiTrap Heparin, Superdex 200)
# T2 sequence (looked up): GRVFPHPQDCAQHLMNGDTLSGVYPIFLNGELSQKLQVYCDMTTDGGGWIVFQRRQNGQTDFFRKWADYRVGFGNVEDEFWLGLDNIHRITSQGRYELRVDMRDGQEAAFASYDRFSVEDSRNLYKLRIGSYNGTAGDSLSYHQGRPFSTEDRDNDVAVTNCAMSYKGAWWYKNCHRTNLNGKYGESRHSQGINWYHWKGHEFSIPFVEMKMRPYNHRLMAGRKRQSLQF
# T3: Fg domain of human tenascin-R (amino acid residues 1129-1358) (human, UniProt Q92752 1129-1358)
# T3 construct: tenascin-R (TNR), human, fibrinogen-like (Fg) domain, residues 1129-1358; also called TNR(Fg); source: E. coli Origami 2(DE3), purified (Ni Sepharose, 3C cleavage, HiTrap Heparin, Superdex 200)
# T3 sequence (looked up): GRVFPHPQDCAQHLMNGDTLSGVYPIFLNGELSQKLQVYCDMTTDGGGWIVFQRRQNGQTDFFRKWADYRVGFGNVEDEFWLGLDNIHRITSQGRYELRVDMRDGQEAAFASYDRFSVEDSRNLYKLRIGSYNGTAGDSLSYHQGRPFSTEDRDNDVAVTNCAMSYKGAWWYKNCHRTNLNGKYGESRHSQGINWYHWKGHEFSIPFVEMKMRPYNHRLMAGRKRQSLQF
# T4: Fg domain of human tenascin-C (amino acid residues 1975-2201) (human, UniProt P24821 1975-2201)
# T4 construct: tenascin-C (TNC), human, fibrinogen-like (Fg) domain, residues 1975-2201; also called TNC(Fg); WT TNC; source: E. coli Origami 2(DE3), purified (Ni Sepharose, 3C cleavage, HiTrap Heparin, Superdex 200)
# T4 sequence (looked up): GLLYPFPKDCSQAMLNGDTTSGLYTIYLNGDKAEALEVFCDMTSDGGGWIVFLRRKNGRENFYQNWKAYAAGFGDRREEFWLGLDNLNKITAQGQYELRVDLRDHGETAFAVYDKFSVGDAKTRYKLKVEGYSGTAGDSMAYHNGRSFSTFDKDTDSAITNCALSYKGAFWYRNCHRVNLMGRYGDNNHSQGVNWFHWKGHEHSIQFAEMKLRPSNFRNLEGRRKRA
# B1: biotinylated Fg domain of human tenascin-C with a cysteine residue added at the N-terminus (domain or fragment)
# chain: CGLLYPFPKDCSQAMLNGDTTSGLYTIYLNGDKAEALEVFCDMTSDGGGWIVFLRRKNGRENFYQNWKAYAAGFGDRREEFWLGLDNLNKITAQGQYELRVDLRDHGETAFAVYDKFSVGDAKTRYKLKVEGYSGTAGDSMAYHNGRSFSTFDKDTDSAITNCALSYKGAFWYRNCHRVNLMGRYGDNNHSQGVNWFHWKGHEHSIQFAEMKLRPSNFRNLEGRRKRA
# modifications: biotin (EZ-Link Maleimide-PEG2-Biotin) on the added N-terminal cysteine
# notes: cysteine residue added at the N-terminus of the Fg domain by site-directed mutagenesis; tenascin-C (TNC), human, fibrinogen-like (Fg) domain, residues 1975-2201; also called biotinylated human TNC(Fg); biotinylated TNC(Fg); source: E. coli Origami 2(DE3), purified, biotinylated, then gel filtration
# B2: biotinylated Fg domain of human tenascin-C with an added N-terminal cysteine (domain or fragment)
# chain: CGLLYPFPKDCSQAMLNGDTTSGLYTIYLNGDKAEALEVFCDMTSDGGGWIVFLRRKNGRENFYQNWKAYAAGFGDRREEFWLGLDNLNKITAQGQYELRVDLRDHGETAFAVYDKFSVGDAKTRYKLKVEGYSGTAGDSMAYHNGRSFSTFDKDTDSAITNCALSYKGAFWYRNCHRVNLMGRYGDNNHSQGVNWFHWKGHEHSIQFAEMKLRPSNFRNLEGRRKRA
# modifications: biotin (EZ-Link Maleimide-PEG2-Biotin) on the cysteine added at the N-terminus
# notes: a cysteine residue added at the N-terminus of the Fg domain by site-directed mutagenesis; C-terminal fibrinogen-like (Fg) domain of human tenascin-C, amino acid residues 1975-2201; also called biotin-HTNC(Fg); biotinylated human TNC(Fg); source: E. coli Origami 2(DE3), purified, biotinylated, then gel filtration
# B3: biotinylated FN domain of human RPTPζ (domain or fragment)
# chain: not shown
# modifications: biotin (EZ-Link NHS-PEG4-Biotin, 1:1 molar ratio)
# B4: biotinylated FN domain of human RPTPζ (domain or fragment)
# chain: not shown
# modifications: biotin (EZ-Link NHS-PEG4-Biotin, 1:1 molar ratio)
# Legend:
# Settings in all cases: both partners purified
# [1] = target: T5, CA-FN domains of human RPTPζ (amino acid residues 34-410) fused to human IgG1 Fc, purified (human, UniProt P23471 34-410); experiment: AlphaScreen or HTRF; competition format: biotinylated human TNC(Fg) (5 nM) on streptavidin donor beads, purified RPTPζ(CA-FN)-Fc (0.5 nM) on protein A acceptor beads, untagged Fg domains at varying concentrations; room temperature; one-site competition fit
# T5 construct: RPTPζ, human, carbonic anhydrase-like and FN domains (CA-FN), residues 34-410; also called RPTPζ(CA-FN); IgG Fc fusion of RPTPζ(CA-FN)
# [2] = target: T6, CA-FN domains of human RPTPζ fused to human IgG1 Fc (human, UniProt P23471 34-410); experiment: AlphaScreen or HTRF; competition: RPTPζ(CA-FN)-Fc (0.5 nM) on protein A acceptor beads, biotinylated TNC(Fg) (5 nM) on streptavidin donor beads, untagged Fg domain as inhibitor in a dilution series; room temperature; one-site competition fit
# T6 construct: carbonic anhydrase-like and fibronectin type III (CA-FN) domains of human RPTPζ, amino acid residues 34-410; also called RPTPζ(CA-FN)-Fc; RPTPζ(CA-FN)
# [3] = target: T1, Fg domain of human tenascin-C; experiment: BLI; biotinylated RPTPζ(FN) on streptavidin tips, Fg domain as analyte; room temperature, 150 mM NaCl, 10 mM Na-Hepes pH 7.5, 1 mg/ml BSA, 0.02% Tween-20, 5 mM CaCl2; dose-response analysis of the signal at equilibrium
# [4] = target: T2, Fg domain of human tenascin-R; experiment: as above
# [5] = target: T1, Fg domain of human tenascin-C; experiment: BLI; biotinylated RPTPζ(FN) on streptavidin tips, Fg domain as analyte; room temperature, 150 mM NaCl, 10 mM Na-Hepes pH 7.5, 1 mg/ml BSA, 0.02% Tween-20, 5 mM CaCl2; kinetic analysis, sensorgrams fitted to a 1:1 binding model
# [6] = target: T2, Fg domain of human tenascin-R; experiment: as above
# [7] = target: T3, Fg domain of human tenascin-R (amino …); experiment: BLI; biotinylated FN domain of RPTPζ (250 nM) immobilised on streptavidin tips; Fg domain in solution; room temperature; 150 mM NaCl, 10 mM Na-Hepes pH 7.5, 1 mg/ml BSA, 0.02% Tween-20, 5 mM EDTA; KD from the signal at equilibrium
# [8] = target: T4, Fg domain of human tenascin-C (amino …); experiment: as above
# [9] = target: T3, Fg domain of human tenascin-R (amino …); experiment: BLI; biotinylated FN domain of RPTPζ (250 nM) immobilised on streptavidin tips; Fg domain in solution; room temperature; 150 mM NaCl, 10 mM Na-Hepes pH 7.5, 1 mg/ml BSA, 0.02% Tween-20, 5 mM CaCl2; KD from the signal at equilibrium
# [10] = target: T4, Fg domain of human tenascin-C (amino …); experiment: as above
binder,measurement,setting,value
B1,binding result,[1],binds
B2,binding result,[2],binds
B3,Kd,[3],242 nM and 191 nM and 127 nM and 187 nM
same,Kd,[4],114 nM and 117 nM and 113 nM and 104 nM
same,Kd,[5],150 nM and 170 nM and 189 nM and 173 nM
same,Kd,[6],79 nM and 80 nM and 78 nM
B4,Kd,[7],712 nM
same,Kd,[8],9900 nM
same,Kd,[9],112 nM
same,koff,[9],> 0.01 s⁻¹
same,Kd,[10],187 nM
same,koff,[10],> 0.01 s⁻¹
